From US6306649

Biological target: ZFHD1 (Zif268 zinc fingers-Oct1 homeodomain chimera) fused to 3xFKBP (UniProt P08046+P14859)
Experiment: cell_activity
Conditions: SEAP reporter in HT1080 cells; rapamycin-dependent, peak at 5 nM; no SEAP without either fusion

ZFHD1 (Zif268 zinc fingers-Oct1 homeodomain chimera) fused to 3xFKBP, sequence (P08046 whole entry, change not shown, chain 1 of 2, the tested form may be a part): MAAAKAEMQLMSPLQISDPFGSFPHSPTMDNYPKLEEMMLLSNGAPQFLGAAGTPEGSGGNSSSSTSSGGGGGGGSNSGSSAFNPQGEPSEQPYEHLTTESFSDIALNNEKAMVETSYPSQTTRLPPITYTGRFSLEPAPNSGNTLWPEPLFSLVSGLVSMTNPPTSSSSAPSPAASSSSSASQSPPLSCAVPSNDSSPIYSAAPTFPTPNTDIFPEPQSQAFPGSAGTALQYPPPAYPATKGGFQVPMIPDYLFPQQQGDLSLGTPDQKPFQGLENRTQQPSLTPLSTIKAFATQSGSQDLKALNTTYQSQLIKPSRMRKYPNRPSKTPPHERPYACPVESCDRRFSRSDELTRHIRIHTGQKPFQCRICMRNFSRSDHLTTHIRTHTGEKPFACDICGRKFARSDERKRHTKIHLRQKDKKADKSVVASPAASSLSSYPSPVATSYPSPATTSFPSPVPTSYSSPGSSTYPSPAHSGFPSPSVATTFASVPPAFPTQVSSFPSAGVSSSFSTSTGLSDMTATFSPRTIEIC
ZFHD1 (Zif268 zinc fingers-Oct1 homeodomain chimera) fused to 3xFKBP, sequence (P14859 whole entry, change not shown, chain 2 of 2, the tested form may be a part): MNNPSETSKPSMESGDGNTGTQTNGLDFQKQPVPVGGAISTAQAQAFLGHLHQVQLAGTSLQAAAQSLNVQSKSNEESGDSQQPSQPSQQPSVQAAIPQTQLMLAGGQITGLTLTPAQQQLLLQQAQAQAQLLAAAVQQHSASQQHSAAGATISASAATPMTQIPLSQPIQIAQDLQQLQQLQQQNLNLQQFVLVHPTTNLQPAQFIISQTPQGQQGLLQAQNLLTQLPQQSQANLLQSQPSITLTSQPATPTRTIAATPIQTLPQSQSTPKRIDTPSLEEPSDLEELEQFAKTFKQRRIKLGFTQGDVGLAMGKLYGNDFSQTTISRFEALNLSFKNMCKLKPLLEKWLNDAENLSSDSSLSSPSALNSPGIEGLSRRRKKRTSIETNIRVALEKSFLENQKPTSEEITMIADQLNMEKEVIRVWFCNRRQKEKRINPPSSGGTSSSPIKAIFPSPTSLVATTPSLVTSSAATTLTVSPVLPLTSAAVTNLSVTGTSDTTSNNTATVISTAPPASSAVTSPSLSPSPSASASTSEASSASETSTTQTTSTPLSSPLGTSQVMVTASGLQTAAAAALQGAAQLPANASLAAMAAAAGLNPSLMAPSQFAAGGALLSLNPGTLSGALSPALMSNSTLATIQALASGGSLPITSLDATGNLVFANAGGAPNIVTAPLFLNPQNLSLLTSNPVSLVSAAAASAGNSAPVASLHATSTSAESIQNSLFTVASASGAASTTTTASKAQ

GCTAGCTAATGATGGGCGCTCGAGTAATGATGGGCGGTCGACTAATGATGGGCGCTCGAGTAATGATGGGCGTCTAGCTAATGATGGGCGCTCGAGTAATGATGGGCGGTCGACTAATGATGGGCGCTCGAGTAATGATGGGCGTCTAGCTAATGATGGGCGCTCGAGTAATGATGGGCGGTCGACTAATGATGGGCGCTCGAGTAATGATGGGCGTCTAGA (double strand) [12x ZFHD1 binding sites (pZHWTx12)]
activity: > 1000 fold
